The values that follow come from paper PMC3895269 (RNA, 2014).

The target in this test is Geobacillus kaustophilus ribosomal protein S18 (Geobacillus kaustophilus, UniProt Q5KU71 1-78). Description: native gel or EMSA. (In general: A gel shift assay detects complexes by their altered migration in electrophoresis.)

B1: Geobacillus kaustophilus ribosomal protein S6 (natural protein)
chain: MRKYEIMYIIRPNMDDEARQALVERFNNVLKENGAEITNVTDWGKRRLAYEIQKYRDGYYMIVNVVSEPKAVQEFDRLARISEDIIRHIVVKEEE
For B1, the binding result is on record as “binds”.
